For data set [1], the system named is Sleeping Beauty transposase HSB-5 K13A,K33A,T83A,S270A (salmonid (reconstructed)). The data set is described as follows: cell_activity. The following applies: transposition in HeLa, G418R colonies.
The subject of data set [2] is Sleeping Beauty transposase K33A K33A (salmonid (reconstructed)). The experiment in a line: cell_activity. Particulars: transposition in HeLa; text says improved 400%.
Data set [3] concerns Sleeping Beauty transposase S270A S270A (salmonid (reconstructed)). The data set is described as follows: cell_activity. Particulars: transposition in HeLa.
In data set [4] the test system is Sleeping Beauty transposase N123 HSB1 (mutations not given) (salmonid (reconstructed)). The data set is described as follows: EMSA. The following applies: no change vs WT. (Mobility shift assays separate free from complexed probe on a gel.)
For data set [5], the target named is T1, Sleeping Beauty transposase N123 (WT) (salmonid (reconstructed)).
T1 chain: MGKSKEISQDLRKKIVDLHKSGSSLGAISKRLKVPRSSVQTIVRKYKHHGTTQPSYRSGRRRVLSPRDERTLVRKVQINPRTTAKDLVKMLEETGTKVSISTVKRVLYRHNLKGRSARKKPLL
The data set is described as follows: EMSA; poly(dI)(dC), 22 C; 500-fold cold oligo used as specific competitor. Particulars: tags: pGADT7 TNT T7 reticulocyte lysate; label: 32P. As to the method: (§1) Truncated (N123) derivatives of wild-type and mutant SB proteins were generated using the TNT T7 coupled reticulocyte lysate system (Promega) according to the manufacturer's instructions. Double-stranded oligonucleotides corresponding to the outer and inner direct repeats (DRs) from SB's left inverted repeat (IR) were end-labeled using [γ-^32P]ATP and PNK. Complexes were formed in a 10 μl volume containing 10 fmol labeled oligonucleotide, 6 μl of in vitro translation product, 1 μg poly(dI)(dC), and binding buffer as previously described (Ivics et al., 1997). For competitions, increasing amounts (1-500 nM) of the corresponding unlabeled oligonucleotide was added to the reaction. After a 90 minute incubation at 22° C., 5 μl of loading dye was added and each sample was resolved on a 5% polyacrylamide gel for 2-3 hours at 120 volts. Binding affinities were determined by measuring the ratio of bound vs. free radiolabeled probe using a Phosphorimager, and normalized according to the amount bound in the absence of cold competitor minus the amount bound at the highest competitor concentration.

The target in data set [6] is T2, Sleeping Beauty transposase N123 L25A (salmonid (reconstructed), L25A).
T2 chain: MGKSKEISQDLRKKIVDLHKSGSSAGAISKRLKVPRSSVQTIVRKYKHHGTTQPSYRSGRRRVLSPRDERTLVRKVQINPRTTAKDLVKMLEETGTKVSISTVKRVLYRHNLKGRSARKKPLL
The data set is described as follows: EMSA. Particulars: tags: pGADT7 TNT T7 reticulocyte lysate; label: 32P. As to the method: as §1

For data set [7], the target named is T3, Sleeping Beauty transposase N123 R36A (salmonid (reconstructed), R36A).
T3 chain: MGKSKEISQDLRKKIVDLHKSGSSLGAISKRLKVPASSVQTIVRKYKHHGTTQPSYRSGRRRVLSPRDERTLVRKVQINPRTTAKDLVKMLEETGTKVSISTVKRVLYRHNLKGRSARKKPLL
The data set is described as follows: EMSA. The following applies: tags: pGADT7 TNT T7 reticulocyte lysate; label: 32P. As to the method: as §1

In data set [8] the target is T4, Sleeping Beauty transposase N123 I42A (salmonid (reconstructed), I42A).
T4 chain: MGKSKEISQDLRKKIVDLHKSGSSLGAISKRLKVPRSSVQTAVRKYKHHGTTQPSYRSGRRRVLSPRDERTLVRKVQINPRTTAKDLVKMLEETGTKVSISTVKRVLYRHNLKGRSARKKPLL
The data set is described as follows: EMSA. The following applies: tags: pGADT7 TNT T7 reticulocyte lysate; label: 32P. Here is the method:
as §1

The target in data set [9] is T5, Sleeping Beauty transposase N123 HSB3 (salmonid (reconstructed), K13A,K33A,T83A).
T5 chain: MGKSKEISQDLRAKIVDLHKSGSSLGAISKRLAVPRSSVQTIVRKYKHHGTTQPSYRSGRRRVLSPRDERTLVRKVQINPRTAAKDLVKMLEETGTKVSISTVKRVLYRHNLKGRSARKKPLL
The experiment in a line: EMSA; no change vs WT. Particulars: tags: pGADT7 TNT T7 reticulocyte lysate; label: 32P. As to the method:
as §1
(§2) Figure 8: FIG. 8. is a comparison of the relative binding affinities of the WT and HSB mutants for transposon binding sites. SB-N123 peptides for WT and hyperactive transposases were complexed with double-stranded radiolabeled oligos encoding the inner (top panel) or outer (bottom panel) DR sequences. Protein-DNA complexes were formed in the presence of increasing amounts of the corresponding unlabeled oligonucleotide. The percent binding was determined using a Phosphorimager and normalized according to the amount of probe bound in the absence of any competitor minus the amount of probe bound at 500 nM.

The target in data set [10] is T6, Sleeping Beauty transposase N123 HSB2 (salmonid (reconstructed), K33A,L91A).
T6 chain: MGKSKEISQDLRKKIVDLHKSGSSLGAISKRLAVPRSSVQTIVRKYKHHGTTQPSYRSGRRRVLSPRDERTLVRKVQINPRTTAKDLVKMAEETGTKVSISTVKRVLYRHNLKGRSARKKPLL
The data set is described as follows: EMSA; no change vs WT. The following applies: tags: pGADT7 TNT T7 reticulocyte lysate; label: 32P. Here is the method:
as §1, §2

The target in data set [11] is T7, Sleeping Beauty transposase N123 HSB4 (salmonid (reconstructed), K33A,T83A,L91A).
T7 chain: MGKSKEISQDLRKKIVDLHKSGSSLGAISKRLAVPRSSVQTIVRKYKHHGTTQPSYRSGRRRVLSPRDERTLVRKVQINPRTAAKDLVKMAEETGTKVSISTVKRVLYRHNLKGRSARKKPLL
The experiment in a line: EMSA; no change vs WT. Particulars: tags: pGADT7 TNT T7 reticulocyte lysate; label: 32P. As to the method:
as §1, §2

The target in data set [12] is T5, Sleeping Beauty transposase N123 HSB3. The data set is described as follows: EMSA; cold competition, 1-500 nM. The following applies: tags: pGADT7 TNT T7 reticulocyte lysate; label: 32P. Here is the method: as §1, §2
The target in data set [13] is T6, Sleeping Beauty transposase N123 HSB2. The experiment in a line: EMSA; cold competition, 1-500 nM. The following applies: tags: pGADT7 TNT T7 reticulocyte lysate; label: 32P. As to the method: as §1, §2
The target of data set [14] is T7, Sleeping Beauty transposase N123 HSB4. The data set is described as follows: EMSA; cold competition, 1-500 nM. The following applies: tags: pGADT7 TNT T7 reticulocyte lysate; label: 32P. Here is the method:
as §1, §2

Some results are limits rather than exact numbers.

Take “pT/nori neomycin-marked SB transposon (full sequence not given)”: the values for the activity in data set [1], in [2] and in data set [3] were over 10 fold vs WT, 400 % of WT and 186 % of WT, respectively.
As for “TCCAGTGGGTCAGAAGTTTACATACACTAAGT (double strand) [inner DR of SB left IR]”, the binding signal (fold affinity vs WT) in [4] was found to be 1.

B1: inner DR of SB left IR (dsDNA)
DNA 1: TCCAGTGGGTCAGAAGTTTACATACACTAAGT
DNA 2: ACTTAGTGTATGTAAACTTCTGACCCACTGGA
On to B1, for which the binding result in data set [5], in data set [6], in data set [7] and in data set [8] was “binds” each time. Further, the binding signal in data set [9], in [10] and in [11] was 1 fold affinity vs WT throughout.

B2: outer DR of SB left IR (dsDNA)
DNA 1: TACAGTTGAAGTCGGAAGTTTACATACACTTAGG
DNA 2: CCTAAGTGTATGTAAACTTCCGACTTCAACTGTA
Take B2: the binding result in data set [5], in data set [13] and in [14] was “binds” each time. The binding signal in data set [12] amounted to 2 fold affinity vs WT.

The values are drawn from patent US7985739, “Enhanced sleeping beauty transposon system and methods for using the same” (The Board of Trustees of the Leland Stanford Junior …).
